# Molecular target: T1, single chain urokinase-type plasminogen activator (UniProt P00749 21-431, radiolabeled with 125I (iodobeads) in the binding assays)
# T1 construct: scuPA alone, without peptide; also called scuPA; recombinant scuPA
# Experiment: 125I-scuPA on LM-TK- cells with peptide (FIG. 1A); indirect read-out of the peptide acting on scuPA
# Method: The cells were washed four times with binding buffer, solubilized in 0.1 N NaOH, and the cell extract was assessed for radioactivity. […] Assays were repeated at least three times, and data presented herein represent the mean and standard deviation.
binder,measurement,value
EEIIMR (Synthetic variant of EEIIMD with Arg at the carboxyl terminus; also called control peptide EEIIMR) [peptide EEIIMR (SEQ ID NO: 5)],scuPA-binding-promoting activity relative to peptide EEIIMD,~20%
